B1: anti-Mac-1 antibody clone 25A04 (antibody, human IgG4, V domains shown)
VH: EVQLVESGGGLVQPGGSLRLSCAASGFTFSFTAMHWVRQAPGKGLEWVSAIIYNGSEADYADSVKGRFTISRDNSKNTLYLQMNSLRAEDTAVYYCARANDYDHGCCDNYAMDYWGQGTLVTVSS
VL: DIQMTQSPSSLSASVGDRVTITCRASQGIGSYLYWYQQKPGKAPKLLIYDASNLQSGVPSRFSGSGSGTDFTLTISSLQPEDFATYYCMQHGGWPLTFGQGTKVEIK
B2: anti-Mac-1 antibody clone 28E07 (antibody, human IgG4, V domains shown)
VH: QVQLQQSGPELVKPGASVKISCKASGYSFTDYNMNWVKQSNGKSLEWIGEINPGYGTSRYNQKFKDKATLTVDQSSTTAYMQLNSLTSEDSAVYYCARADVDYGDVMDYWGQGTTVTVSS
VL: DIELTQSPAIMSASPGEKVTMTCSASSSVSYMHWYQQKSGTSPKRWIYDTSKLASGVPTRFSGSGSGTSYSLTISSMEAEDAATYYCQQWSSNPPTFGAGTKLELK
B3: anti-Mac-1 antibody clone 27D06 (antibody, human IgG4, V domains shown)
VH: QVKLQESGAEVVKPGASVKISCKASGYSFTDYNMNWVKQSNGKSLEWIGVINPNYGTTSYNQKFKGKATLTVDQSSSTAYMQLNSLTSEDSAVYYCARTYDYDGDAFAYWGQGTTVTVSS
VL: DIELTQSPALMSASPGEKVTMTCRASSSVSSNNLHWYQQKSGASPKLWIYSTSNLATGAPARFSGSGSGTSYSLTISSMEAEDAATYYCQQWNSNPPTFGGGTKLEIK
B4: anti-Mac-1 antibody clone 27A04 (antibody, human IgG4, V domains shown)
VH: QVKLQQSGPELVKPGASVKISCKASGYSFTDYNMNWVKQSNGKSLEWIGVINPNYGTTSYNQKFKGKATLTVDQSSSTAYMQLNSLTSEDSAVYYCARTYDYDGDAFAYWGQGTTVTVSS
VL: DIELTQSPAIMSASPGEKVTMTCSASSSVSYMHWYQQKSGTSPKRWIYDTSKLASGVPARFSGSGSGTSYSLTISSMEAEDAATYYCQQWSSNPPTFGAGTKLELK
B5: anti-Mac-1 antibody clone 27A06 (antibody, human IgG4, V domains shown)
VH: QVKLQQSGPELVTPGASVKISCKPSGYSFTDYNMNWVKQSNGKSLEWIGEINPNYGTTRHNQKFKGKASLTVDQSSSTAYMQLISLTSEDSAVYYCARTYDYDEDAFAYWGQGTTVTVSS
VL: DIELTQSPAIMSASPGEKVTMTCSASSSVSYMHWYQQKSDTSPKRWIYDTSKLASGVPARFSGSGSGTSYSLTISSMEAEDAATYYCQQWSSNPPTFGAGTKLELK
B6: anti-Mac-1 antibody clone 27G04 (antibody, human IgG4, V domains shown)
VH: QVKLQESGPELVKPGASVKISCKASGYSFTDYNMNWVKQSNGKSLEWIGVINPNYGTTSYNQKFKGKATLTVDQSSSTAYMQLNSLTSEDSAVYYCARTFDYDDDAFAYWGQGTTVTVSS
VL: DIELTQSPAIMSASPGEKVTITCSASSSVSDMHWYQQKSGTSPKRWIYDTSKLASGVPARFSGSGSGTSYSLTISNMEAEDAATYYCQQWSSNPPTFGAGTKLELK
B7: anti-Mac-1 antibody clone DF4M-31 (antibody, human IgG4, V domains shown)
VH: EVQLVESGGGLVQPGGSLRLSCAASGFTFTSATMSWVRQAPGKGLEWVSIISPGGSETYYADSVKGRFTISRDNSKNTLYLQMNSLRAEDTAVYYCARGGDYPSYYMDPWGQGTLVTVSS
VL: DIQMTQSPSSLSASVGDRVTITCRASQSISNYLAWYQQKPGKAPKLLIYGTSSLQSGVPSRFSGSGSGTDFTLTISSLQPEDFATYYCQQGHQWPWTFGQGTKVEIK
B8: anti-Mac-1 antibody clone DF4-22 (antibody, human IgG4, V domains shown)
VH: EVQLVESGGGLVQPGGSLRLSCAASGFTFTDYNVHWVRQAPGKGLEWVSGINSSGSETNYADSVKGRFTISRDNSKNTLYLQMNSLRAEDTAVYYCARDSVFKTVGGYDAVMDYWGQGTLVTVSS
VL: DIQMTQSPSSLSASVGDRVTITCRASQSIYNYLAWYQQKPGKAPKLLIYGTSTLQSGVPSRFSGSGSGTDFTLTISSLQPEDFATYYCMQSYSSPTTFGQGTKVEIK
B9: anti-Mac-1 antibody clone 24H01 (antibody, human IgG4, V domains shown)
VH: EVQLVESGGGLVQPGGSLRLSCAASGFTFNNYYMSWVRQAPGKGLEWVSIIYYDGSEADYADSVKGRFTISRDNSKNTLYLQMNSLRAEDTAVYYCARNKDIYSVYGMDYWGQGTLVTVSS
VL: DIQMTQSPSSLSASVGDRVTITCRASQSISNYLAWYQQKPGKAPKLLIYATSNLQSGVPSRFSGSGSGTDFTLTISSLQPEDFATYYCQQANNTPPTFGQGTKVEIK
B10: anti-Mac-1 antibody clone 25A06 (antibody, human IgG4, V domains shown)
VH: EVQLVESGGGLVQPGGSLRLSCAASGFTFSSYYMSWVRQAPGKGLEWVSTINYDGSEKDYADSVKGRFTISRDNSKNTLYLQMNSLRAEDTAVYYCARDRLGNYPWFDVWGQGTLVTVSS
VL: DIQMTQSPSSLSASVGDRVTITCRASQSISNYLAWYQQKPGKAPKLLIYDANNLQSGVPSRFSGSGSGTDFTLTISSLQPEDFATYYCQQSYSWPLTFGQGTKVEIK

Key:
[1] = biological target: T1, human Mac-1 (integrin αMβ2, CD11b/CD18) (human, UniProt P11215 17-1152; P05107 23-769); assay: flow cytometry, HEK293/Mac-1 cells, PBS (Mock), 10 µg/ml of this antibody; binding of reporter mAb m24 read
Experimental: (§1) The HEK293/Mac-1 cells (clone1-4) were counted and washed twice with staining buffer (PBS containing 1% FBS, and 0.1% sodium azide). Cells were adjusted at a concentration of 1×10⁵ cells/ml in staining buffer and treated with/without 0.25 mM MnCl₂ (Sigma). Cells were treated with anti-Mac-1 antibodies and fluorescent conjugated anti-human IgG4 antibodies and incubated for 15 mins. After washing with the staining buffer, the cells were analyzed by flow cytometry. In some examples, these cells were treated with the antibodies (ICRF44, KIM127, m24, or isotype control) in the presence or absence 10 μg/ml anti-Mac-1 antibodies. The cells were then incubated at 37° C. for 30 min. After washing with the staining buffer, the cells were analyzed by flow cytometry.
(§2) TABLE III The anti-Mac-1 antibodies can serve as agonist to enhance the conformational change of Mac-1. HEK293/Mac-1 cells (clone1-4) were incubated with 10 μg/ml anti-Mac-1 antibodies under the PBS (Mock) condition. Binding of KIM127 or m24 was detected using flow cytometry.

[2] = biological target: T1, human Mac-1 (integrin αMβ2, CD11b/CD18); assay: flow cytometry, HEK293/Mac-1 cells, PBS/MnCl2 (Mn2+), 10 µg/ml of this antibody; binding of reporter mAb KIM127 read
Experimental: as §1
(§3) TABLE IV The anti-Mac-1 antibody can serve as an antagonist to reduce the conformational change of Mac-1. HEK293/Mac-1 cells (clone1-4) were incubated with 10 μg/ml anti-Mac-1 antibodies under the PBS/MnCl₂ (Mn²⁺) condition. Binding of KIM127 or m24 was detected using flow cytometry.

[3] = biological target: T1, human Mac-1 (integrin αMβ2, CD11b/CD18); assay: flow cytometry, HEK293/Mac-1 cells; MFI in PBS over MFI in PBS/MnCl2
Experimental: as §1
(§4) TABLE II The anti-Mac-1 antibodies selectively bind to different statuses of human Mac-1. HEK293/Mac-1 cells (clone1-4) were incubated in PBS (Mock), or PBS/MnCl₂ (Mn²⁺). Binding of isotype control IgG, the CD11b specific mAb (ICRF44), the CD11b activation-sensing mAb (CBRM1/5), or the screened anti-Mac-1 antibody was detected using flow cytometry.

[4] = biological target: T1, human Mac-1 (integrin αMβ2, CD11b/CD18); assay: flow cytometry, HEK293/Mac-1 cells, PBS/MnCl2 (Mn2+), 10 µg/ml of this antibody; binding of reporter mAb m24 read
Experimental: as §1, §3

[5] = biological target: T1, human Mac-1 (integrin αMβ2, CD11b/CD18); assay: flow cytometry, HEK293/Mac-1 cells (clone 1-4), PBS/MnCl2 (Mn2+)
Experimental: as §1, §4

[6] = biological target: T1, human Mac-1 (integrin αMβ2, CD11b/CD18); assay: flow cytometry, HEK293/Mac-1 cells, PBS (Mock), 10 µg/ml of this antibody; binding of reporter mAb KIM127 read
Experimental: as §1, §2

[7] = biological target: T1, human Mac-1 (integrin αMβ2, CD11b/CD18); assay: flow cytometry, HEK293/Mac-1 cells (clone 1-4), PBS (Mock)
Experimental: as §1, §4

Binder	m24 (Expression relative to IgG4) [1]	KIM127 (Expression relative to IgG4) [2]	Mock/Mn^2+ Ratio [3]	m24 (Expression relative to IgG4) [4]	Mn^2+ MFI [5]	KIM127 (Expression relative to IgG4) [6]	Mock MFI [7]
B1	9.33 relative to IgG4	1.34 relative to IgG4	0.6	2.11 relative to IgG4	65800 MFI	1.58 relative to IgG4	39600 MFI
B2	0.63 relative to IgG4	0.65 relative to IgG4	0.95	0.85 relative to IgG4	56400 MFI	0.98 relative to IgG4	53400 MFI
B3	1.2 relative to IgG4	1.05 relative to IgG4	0.9	1.38 relative to IgG4	16600 MFI	0.99 relative to IgG4	15000 MFI
B4	0.78 relative to IgG4	0.7 relative to IgG4	0.91	0.88 relative to IgG4	39800 MFI	1.05 relative to IgG4	36100 MFI
B5	0.88 relative to IgG4	0.85 relative to IgG4	1.35	0.88 relative to IgG4	48000 MFI	1.04 relative to IgG4	64600 MFI
B6	1 relative to IgG4	0.89 relative to IgG4	1.05	1.14 relative to IgG4	41100 MFI	1.11 relative to IgG4	43100 MFI
B7	3.77 relative to IgG4	1.48 relative to IgG4	0.36	3.87 relative to IgG4	13000 MFI	1.13 relative to IgG4	4630 MFI
B8	15.7 relative to IgG4	1.64 relative to IgG4	0.69	4.37 relative to IgG4	35200 MFI	1.82 relative to IgG4	24400 MFI
B9	1.92 relative to IgG4	1.49 relative to IgG4	0.42	2.36 relative to IgG4	23900 MFI	1.05 relative to IgG4	9940 MFI
B10	16.8 relative to IgG4	1.74 relative to IgG4	0.72	3.5 relative to IgG4	39400 MFI	1.92 relative to IgG4	28500 MFI

Reference: patent publication US20240084017A1 (ASCENDO BIOTECHNOLOGY, published 2024)
